Patent publication US20200283478A1

Target: PCSK9Δhelix (human)
Experiment: phage spot ELISA

PCSK9Δhelix (human), sequence (prodomain, as listed by the source mutant limits assumed, chain 1 of 2): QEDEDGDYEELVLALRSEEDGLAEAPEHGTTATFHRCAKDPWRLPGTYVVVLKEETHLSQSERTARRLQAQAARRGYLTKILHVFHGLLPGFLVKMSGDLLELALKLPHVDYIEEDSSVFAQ
PCSK9Δhelix (human), sequence (chain, as listed by the source mutant limits assumed, chain 2 of 2): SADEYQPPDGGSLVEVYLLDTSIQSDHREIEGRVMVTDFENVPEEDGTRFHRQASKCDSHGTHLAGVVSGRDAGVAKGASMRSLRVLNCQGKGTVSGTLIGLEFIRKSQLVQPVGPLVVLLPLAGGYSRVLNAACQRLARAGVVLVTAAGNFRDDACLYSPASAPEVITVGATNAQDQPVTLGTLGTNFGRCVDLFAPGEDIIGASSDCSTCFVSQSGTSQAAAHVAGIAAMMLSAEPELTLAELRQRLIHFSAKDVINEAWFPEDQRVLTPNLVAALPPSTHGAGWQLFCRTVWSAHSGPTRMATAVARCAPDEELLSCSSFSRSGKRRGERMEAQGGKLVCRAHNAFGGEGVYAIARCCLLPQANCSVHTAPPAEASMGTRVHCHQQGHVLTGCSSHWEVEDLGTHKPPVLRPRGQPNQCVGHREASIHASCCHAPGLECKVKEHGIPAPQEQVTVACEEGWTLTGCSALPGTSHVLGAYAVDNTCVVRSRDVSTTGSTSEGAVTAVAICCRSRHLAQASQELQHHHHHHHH

SGVCSDHYIGGKEVRC [SEQ ID NO 378]
ELISA: 1.21
s/n: 1.85

SGDFIPWNLVRIGLLR [SEQ ID NO 385]
ELISA: 0.657
s/n ratio: 5.01

TAFTSWEEYLDWVGSGCMEAWQCSLA [SEQ ID NO 337]
ELISA: 2.76
s/n ratio: 1.49
